Measurements as given in patent US20230416365A1 (Hoffmann-La Roche, published 2023).

T1: Hu N(A2-B2)A-avi-His (human, biotinylated at the avi tag (Example 2.2))
T1 construct: also called hu N(A2-B2)A-avi-His B; CEACAM5-based antigen
T1 chain: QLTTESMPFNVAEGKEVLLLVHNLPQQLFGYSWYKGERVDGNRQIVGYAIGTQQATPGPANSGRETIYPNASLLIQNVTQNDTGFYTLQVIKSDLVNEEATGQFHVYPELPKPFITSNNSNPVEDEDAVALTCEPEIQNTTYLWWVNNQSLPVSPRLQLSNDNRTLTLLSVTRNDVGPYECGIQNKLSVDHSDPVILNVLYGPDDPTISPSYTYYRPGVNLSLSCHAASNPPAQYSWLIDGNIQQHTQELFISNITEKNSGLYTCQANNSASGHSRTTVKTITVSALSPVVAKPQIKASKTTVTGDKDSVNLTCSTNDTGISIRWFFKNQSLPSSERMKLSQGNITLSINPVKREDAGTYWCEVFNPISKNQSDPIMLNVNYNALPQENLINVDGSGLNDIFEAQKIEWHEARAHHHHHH

T2: N(A2B2)A-avi-His (biotinylated at the avi tag)
T2 construct: also called biotinylated N(A2B2)A-avi-His
T2 chain: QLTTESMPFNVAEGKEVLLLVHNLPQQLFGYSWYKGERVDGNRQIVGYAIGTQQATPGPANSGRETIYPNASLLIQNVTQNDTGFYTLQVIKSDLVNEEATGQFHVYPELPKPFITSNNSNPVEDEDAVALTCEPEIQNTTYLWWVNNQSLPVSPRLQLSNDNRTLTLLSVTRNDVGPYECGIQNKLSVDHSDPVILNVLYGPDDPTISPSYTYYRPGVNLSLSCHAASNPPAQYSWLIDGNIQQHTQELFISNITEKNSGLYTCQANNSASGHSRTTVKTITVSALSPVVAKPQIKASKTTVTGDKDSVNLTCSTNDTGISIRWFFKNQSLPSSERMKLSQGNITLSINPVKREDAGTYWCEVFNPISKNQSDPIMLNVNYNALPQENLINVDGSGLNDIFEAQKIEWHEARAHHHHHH

B1: CEA (A5B7) Fab (parental murine antibody) (Fab, V domains shown)
VH: EVKLVESGGGLVQPGGSLRLSCATSGFTFTDYYMNWVRQPPGKALEWLGFIGNKANGYTTEYSASVKGRFTISRDKSQSILYLQMNTLRAEDSATYYCTRDRGLRFYFDYWGQGTTLTVSS
VL: QTVLSQSPAILSASPGEKVTMTCRASSSVTYIHWYQQKPGSSPKSWIYATSNLASGVPARFSGSGSGTSYSLTISRVEAEDAATYYCQHWSSKPPTFGGGTKLEIK
notes: Fab; also called P1AE0289
B2: Fab derived from P1AE2166 (Fab, V domains shown)
VH: EVQLLESGGGLVQPGGSLRLSCAASGFTFTDYYMNWVRQAPGKGLEWLGFIGNKANGYTTEYSASVKGRFTISRDKSKNTLYLQMNSLRAEDTATYYCTRDRGLRFYFDYWGQGTTVTVSS
VL: EIVLTQSPATLSLSPGERATLSCRASSSVTYIHWYQQKPGSSPKSWIYATSNLASGIPARFSGSGSGTDFTLTISSLEPEDFAVYYCQHWSSKPPTFGQGTKLEIK
notes: Fab; also called P1AE4137
B3: Fab derived from P1AE2164 (Fab, V domains shown)
VH: EVQLLESGGGLVQPGGSLRLSCAASGFTFTDYYMNWVRQAPGKGLEWLGFIGNKANGYTTEYSASVKGRFTISRDKSKNTLYLQMNSLRAEDTATYYCTRDRGLRFYFDYWGQGTTVTVSS
VL: QTVLTQSPATLSLSPGERATLSCRASSSVTYIHWYQQKPGSSPKSWIYATSNLASGIPARFSGSGSGTDYTLTISSLEPEDFAVYYCQHWSSKPPTFGQGTKLEIK
notes: Fab; also called P1AE4135
B4: bispecific CEA (P005.103-combo1)-CD28 (SA Variant 15) 1+1 IgG (bispecific antibody)
heavy 1: EIVLTQSPATLSLSPGERATLSCRASSSVTYIHWYQQKPGQAPRSWIYATSNLASGIPARFSGSGSGTDFTLTISSLEPEDFAVYYCQHWSSISPTFGQGTKLEIKSSASTKGPSVFPLAPSSKSTSGGTAALGCLVKDYFPEPVTVSWNSGALTSGVHTFPAVLQSSGLYSLSSVVTVPSSSLGTQTYICNVNHKPSNTKVDKKVEPKSCDKTHTCPPCPAPEAAGGPSVFLFPPKPKDTLMISRTPEVTCVVVDVSHEDPEVKFNWYVDGVEVHNAKTKPREEQYNSTYRVVSVLTVLHQDWLNGKEYKCKVSNKALGAPIEKTISKAKGQPREPQVCTLPPSRDELTKNQVSLSCAVKGFYPSDIAVEWESNGQPENNYKTTPPVLDSDGSFFLVSKLTVDKSRWQQGNVFSCSVMHEALHNHYTQKSLSLSP
light 1: EVQLLESGGGLVQPGGSLRLSCAASGFTFTDYYMNWVRQAPGKGLEWLGFIGNKANAYTTEYSASVKGRFTISRDKSKNTLYLQMNSLRAEDTATYYCTRDRGIRFSFDYWGQGTTVTVSSASVAAPSVFIFPPSDEQLKSGTASVVCLLNNFYPREAKVQWKVDNALQSGNSQESVTEQDSKDSTYSLSSTLTLSKADYEKHKVYACEVTHQGLSSPVTKSFNRGEC
heavy 2: not shown
light 2: not shown
notes: knob-into-hole, crossmab, PG-LALA
B5: bispecific CEA (P006.038-combo2)-CD28 (SA Variant 15) 1+1 IgG (bispecific antibody)
heavy 1: EIVLTQSPATLSLSPGERATLSCRASSSVTYIHWYQQKPGQAPRSWIYATSNLASGIPARFSGSGSGTDFTLTISSLEPEDFAVYYCQHWSSVPPTFGQGTKLEIKSSASTKGPSVFPLAPSSKSTSGGTAALGCLVKDYFPEPVTVSWNSGALTSGVHTFPAVLQSSGLYSLSSVVTVPSSSLGTQTYICNVNHKPSNTKVDKKVEPKSCDKTHTCPPCPAPEAAGGPSVFLFPPKPKDTLMISRTPEVTCVVVDVSHEDPEVKFNWYVDGVEVHNAKTKPREEQYNSTYRVVSVLTVLHQDWLNGKEYKCKVSNKALGAPIEKTISKAKGQPREPQVCTLPPSRDELTKNQVSLSCAVKGFYPSDIAVEWESNGQPENNYKTTPPVLDSDGSFFLVSKLTVDKSRWQQGNVFSCSVMHEALHNHYTQKSLSLSP
light 1: EVQLLESGGGLVQPGGSLRLSCAASGFTFSDYEMNWVRQAPGKGLEWLGFISNKANAYTTEYSASVKGRFTISRDKSKNTLYLQMNSLRAEDTATYYCTRDRGIRFGFDYWGQGTTVTVSSASVAAPSVFIFPPSDEQLKSGTASVVCLLNNFYPREAKVQWKVDNALQSGNSQESVTEQDSKDSTYSLSSTLTLSKADYEKHKVYACEVTHQGLSSPVTKSFNRGEC
heavy 2: not shown
light 2: not shown
notes: as for B4
B6: bispecific CEA (P006.038-combo1)-CD28 (SA Variant 15) 1+1 IgG (bispecific antibody)
heavy 1: EIVLTQSPATLSLSPGERATLSCRASSSVTYIHWYQQKPGQAPRSWIYATSNLASGIPARFSGSGSGTDFTLTISSLEPEDFAVYYCQHWSSVPPTFGQGTKLEIKSSASTKGPSVFPLAPSSKSTSGGTAALGCLVKDYFPEPVTVSWNSGALTSGVHTFPAVLQSSGLYSLSSVVTVPSSSLGTQTYICNVNHKPSNTKVDKKVEPKSCDKTHTCPPCPAPEAAGGPSVFLFPPKPKDTLMISRTPEVTCVVVDVSHEDPEVKFNWYVDGVEVHNAKTKPREEQYNSTYRVVSVLTVLHQDWLNGKEYKCKVSNKALGAPIEKTISKAKGQPREPQVCTLPPSRDELTKNQVSLSCAVKGFYPSDIAVEWESNGQPENNYKTTPPVLDSDGSFFLVSKLTVDKSRWQQGNVFSCSVMHEALHNHYTQKSLSLSP
light 1: EVQLLESGGGLVQPGGSLRLSCAASGFYFTDYAMNWVRQAPGKGLEWLGVISNKANAYTTEYSASVKGRFTISRDKSKNTLYLQMNSLRAEDTATYYCTRDRGIRFGFDYWGQGTTVTVSSASVAAPSVFIFPPSDEQLKSGTASVVCLLNNFYPREAKVQWKVDNALQSGNSQESVTEQDSKDSTYSLSSTLTLSKADYEKHKVYACEVTHQGLSSPVTKSFNRGEC
heavy 2: not shown
light 2: not shown
notes: as for B4
B7: bispecific CEA (P005.103-combo2)-CD28 (SA Variant 15) 1+1 IgG (bispecific antibody)
heavy 1: EIVLTQSPATLSLSPGERATLSCRASSSVTYIHWYQQKPGQAPRSWIYATSNLASGIPARFSGSGSGTDFTLTISSLEPEDFAVYYCQHWSSISPTFGQGTKLEIKSSASTKGPSVFPLAPSSKSTSGGTAALGCLVKDYFPEPVTVSWNSGALTSGVHTFPAVLQSSGLYSLSSVVTVPSSSLGTQTYICNVNHKPSNTKVDKKVEPKSCDKTHTCPPCPAPEAAGGPSVFLFPPKPKDTLMISRTPEVTCVVVDVSHEDPEVKFNWYVDGVEVHNAKTKPREEQYNSTYRVVSVLTVLHQDWLNGKEYKCKVSNKALGAPIEKTISKAKGQPREPQVCTLPPSRDELTKNQVSLSCAVKGFYPSDIAVEWESNGQPENNYKTTPPVLDSDGSFFLVSKLTVDKSRWQQGNVFSCSVMHEALHNHYTQKSLSLSP
light 1: EVQLLESGGGLVQPGGSLRLSCAASGFYFTDYYMNWVRQAPGKGLEWLGVISNKANAYTTEYSASVKGRFTISRDKSKNTLYLQMNSLRAEDTATYYCTRDRGIRFSFDYWGQGTTVTVSSASVAAPSVFIFPPSDEQLKSGTASVVCLLNNFYPREAKVQWKVDNALQSGNSQESVTEQDSKDSTYSLSSTLTLSKADYEKHKVYACEVTHQGLSSPVTKSFNRGEC
heavy 2: not shown
light 2: not shown
notes: as for B4
B8: bispecific CEA (P006.038)-CD28 (SA Variant 15) 1+1 IgG (bispecific antibody)
heavy 1: EIVLTQSPATLSLSPGERATLSCRASSSVTYIHWYQQKPGQAPRSWIYATSNLASGIPARFSGSGSGTDFTLTISSLEPEDFAVYYCQHWSSVPPTFGQGTKLEIKSSASTKGPSVFPLAPSSKSTSGGTAALGCLVKDYFPEPVTVSWNSGALTSGVHTFPAVLQSSGLYSLSSVVTVPSSSLGTQTYICNVNHKPSNTKVDKKVEPKSCDKTHTCPPCPAPEAAGGPSVFLFPPKPKDTLMISRTPEVTCVVVDVSHEDPEVKFNWYVDGVEVHNAKTKPREEQYNSTYRVVSVLTVLHQDWLNGKEYKCKVSNKALGAPIEKTISKAKGQPREPQVCTLPPSRDELTKNQVSLSCAVKGFYPSDIAVEWESNGQPENNYKTTPPVLDSDGSFFLVSKLTVDKSRWQQGNVFSCSVMHEALHNHYTQKSLSLSP
light 1: EVQLLESGGGLVQPGGSLRLSCAASGFTFTDYYMNWVRQAPGKGLEWLGFIGNKANAYTTEYSASVKGRFTISRDKSKNTLYLQMNSLRAEDTATYYCTRDRGIRFGFDYWGQGTTVTVSSASVAAPSVFIFPPSDEQLKSGTASVVCLLNNFYPREAKVQWKVDNALQSGNSQESVTEQDSKDSTYSLSSTLTLSKADYEKHKVYACEVTHQGLSSPVTKSFNRGEC
heavy 2: not shown
light 2: not shown
notes: as for B4

Molecular target: T1, Hu N(A2-B2)A-avi-His
Assay: SPR, Biacore T200, antigen amine-coupled on CM5, Fab as analyte
Description: Data were double-referenced against the unimmobilized flow cell 1 and a zero concentration of the analyte. The sensorgrams of the analytes were fitted to a simple 1:1 Langmuir interaction model.

In order of falling Kd:
1. B2  11.3 nM
2. B3  1.7 nM
3. B1  0.559 nM

Molecular target: T2, N(A2B2)A-avi-His
Assay: SPR, ProteOn, antigen on NLC chip, bispecific IgG as analyte
Protocol: About 2000, 1000, 500, and 250 RU of biotinylated N(A2B2)A-avi-His were immobilized on 4 channels of a Streptavidin-coated NLC chip in vertical orientation. As a control for non-specific binding, 2000 RU of biotinylated NA(B2)A-avi-His protein was immobilized on channel 5. For the determination of the affinity (KD) of the purified bispecific constructs, injection direction was changed to horizontal orientation. […] Buffer (PBST) was injected along the sixth channel to provide an “in-line” blank for referencing. Regeneration was performed with 10 mM glycine pH 1.5 for 20 s at 50 ul/min (vertical orientation).
Association rate constants (kon) and dissociation rate constants (koff) were calculated using a simple one-to-one Langmuir binding model in ProteOn Manager v3.1 software by simultaneously fitting the association and dissociation sensorgrams. The equilibrium dissociation constant (KD) was calculated as the ratio koff/kon.

In order of rising Kd:
1. B7  0.09 nM
2. B8  0.22 nM
3. B4  0.27 nM
4. B5  3.66 nM
5. B6  4.48 nM

In order of falling koff:
1. B6  0.000799 s⁻¹
2. B5  0.000698 s⁻¹
3. B8  5.87e-05 s⁻¹
4. B4  3.42e-05 s⁻¹
5. B7  1.05e-05 s⁻¹

In order of falling kon:
1. B8  267000 M⁻¹ s⁻¹
2. B5  191000 M⁻¹ s⁻¹
3. B6  178000 M⁻¹ s⁻¹
4. B4  126000 M⁻¹ s⁻¹
5. B7  123000 M⁻¹ s⁻¹
